In paper PMC3326319:

How the values were obtained:
[1] = target: T1, PhNob1Zn (Pyrococcus horikoshii, UniProt O58440 121-161); assay: NMR titration
T1 chain: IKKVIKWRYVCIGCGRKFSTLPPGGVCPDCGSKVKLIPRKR

[2] = target: T1, PhNob1Zn; assay: fluorescence anisotropy
[3] = target: T2, PhNob1 (Pyrococcus horikoshii, UniProt O58440 1-161); assay: fluorescence anisotropy
T2 sequence: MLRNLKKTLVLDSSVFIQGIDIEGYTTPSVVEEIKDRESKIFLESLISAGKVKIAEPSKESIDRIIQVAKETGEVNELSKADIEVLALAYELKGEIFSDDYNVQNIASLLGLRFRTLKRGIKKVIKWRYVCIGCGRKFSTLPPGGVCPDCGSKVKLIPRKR

Work on GACUGCCGGCGAUAAGCCGGAGGAAG (structured_RNA) [PhH40 unlabeled (gel filtration, NMR)] yielded a Kd [1] of less than 1000 nM.

For UACAGGGCCCAUUGGGGCCCUGUA (structured_RNA) [ScH16 (stabilized)], the Kd [2] was 1500 ± 200 nM.

Binder GACUGCCGGCGAUAAGCCGGAGGAAG (structured_RNA) [PhH40 (helix 40)] has a Kd [2] of 2300 ± 100 nM and a Kd [3] of 2000 ± 100 nM.

Binder CCGGCGAUAAGCCGG (structured_RNA) [PhH40short (H40S)] has a Kd [2] of 3100 ± 200 nM.
